Data as given in the RNAGym collection of RNA variant scans (doi:10.1073/pnas.2313332121).

B1: TPR t1 (parent)
chain: GACCAAUCUGCCCUCAGAGCUCGAGAACAUCUUCGGAUGCAGAGGAGGCAGGCUUCGGUGGCGCGAUAGCGCCAACGUCCUCAACCUCCAAUGCAUCCCACCACAUGAUGAUGCCUGAAGAGCCUUGGUUUUUUG

Variants of: B1
Assay: polymerase ribozyme fitness, log enrichment relative to wild type (log ratio); higher = more active; in vitro selection for triplet polymerase activity
Summary of the method: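 The heterodimeric triplet polymerase ribozyme's subunits were each mutagenized into PCR-built libraries and transcribed. Every library was selected once, in triplicate, by annealing with a biotinylated primer, the partner subunit and triplets, incubating frozen at −7 °C, gel-excising extended constructs, capturing on streptavidin beads and running RT-PCR. Input and output libraries were Illumina-sequenced, with genotypes kept only at ≥10 input reads and ≥1 read per output. Fitness, from inverse-variance-weighted replicate averages, is the base-2 logarithm of genotype enrichment over wild-type enrichment.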

Going from GACCAAUCUGCCCUCAGAGCUCGAGAACAUCUUCGGAUGCAGAGGAGGCAGGCUUCGGUGGCGCGAUAGCGCCAACGUCCUCAACCUCCAAUGCAUCCCACCACAUGAUGAUGCCUAAAGAGCCUUGGUUUUUUG [G117A] to GACCAAUCUGCCCUCAGAGCUCGAGAACAUCUUCGGAUGCAGAGGAGGCAGGCUUCGGUGGCGCGAUAGCGCCAACGUCCUCAACCUCCAAUGCAUCCCACCACAUGAUGAUGCCUUAAGAGCCUUGGUUUUUUG [G117U], the “polymerase ribozyme fitness (log ratio)” value falls from -1.1 to -2.21.

Going from GACCAAUCUGCCCUCAGAGCUCGAGAACAUCUUCGGAUGCAGAGGAGGCAGGCUUCGGUGGCGCGAUAGCGCCAACGUCCUCAACCUCCAAUGCAUCCCACCACAUGAUGAUGCCUCAAGAGCCUUGGUUUUUUG [G117C] to GACCAAUCUGCCCUCAGAGCUCGAGAACAUCUUCGGAUGCAGAGGAGGCAGGCUUCGGUGGCGCGAUAGCGCCAACGUCCUCAACCUCCAAUGCAUCCCACCACAUGAUGAUGCCUAAAGUGCCUUGGUUUUUUG [G117A A121U], the “polymerase ribozyme fitness (log ratio)” value rises from -3.16 to 1.08.

First: GACCAAUCUGCCCUCAGAGCUCGAGAACAUCUUCGGAUGCAGAGGAGGCAGGCUUCGGUGGCGCGAUAGCGCCAACGUCCUCAACCUCCAAUGCAUCCCACCACAUGAUGAUGCCUAAAGAGCCUUGGGUUUUUG [G117A U129G]
Second: GACCAAUCUGCCCUCAGAGCUCGAGAACAUCUUCGGAUGCAGAGGAGGCAGGCUUCGGUGGCGCGAUAGCGCCAACGUCCUCAACCUCCAAUGCAUCCCACCACAUGAUGAUGCCUCAAGUGCCUUGGUUUUUUG [G117C A121U]
The “polymerase ribozyme fitness (log ratio)” value of the first is lower: -4.37 for the first, -3 for the second.

Compared with GACCAAUCUGCCCUCAGAGCUCGAGAACAUCUUCGGAUGCAGAGGAGGCAGGCUUCGGUGGCGCGAUAGCGCCAACGUCCUCAACCUCCAAUGCAUCCCACCACAUGAUGAUGCUUGAAGAGCCUUGGUUUUUUG [C115U], GACCAAUCUGCCCUCAGAGCUCGAGAACAUCUUCGGAUGCAGAGGAGGCAGGCUUCGGUGGCGCGAUAGCGCCAACGUCCUCAACCUCCAAUGCAUCCCACCACAUGAUGAUGCGUGAAGAGCCUUGGUUUUUUG [C115G] is lower in “polymerase ribozyme fitness (log ratio)” value: -0.935 for the first, -1.59 for the second.

Compared with GACCAAUCUGCCCUCAGAGCUCGAGAACAUCUUCGGAUGCAGAGGAGGCAGGCUUCGGUGGCGCGAUAGCGCCAACGUCCUCAACCUCCAAUGCAUCCCACCACAUGAUGAUGCAUGAAGAGCCUUGGUUUUUUG [C115A], GACCAAUCUGCCCUCAGAGCUCGAGAACAUCUUCGGAUGCAGAGGAGGCAGGCUUCGGUGGCGCGAUAGCGCCAACGUCCUCAACCUCCAAUGCAUCCCACCACAUGAUGAUGCCCGAAGAGCCUUGGUUUCUUG [U116C U132C] is lower in “polymerase ribozyme fitness (log ratio)” value: -0.202 for the first, -1.33 for the second.

First: GACCAAUCUGCCCUCAGAGCUCGAGAACAUCUUCGGAUGCAGAGGAGGCAGGCUUCGGUGGCGCGAUAGCGCCAACGUCCUCAACCUCCAAUGCAUCCCACCACAUGAUGAUGCAUGAAGAGCCUUUGUUUUUUG [C115A G127U]
Second: GACCAAUCUGCCCUCAGAGCUCGAGAACAUCUUCGGAUGCAGAGGAGGCAGGCUUCGGUGGCGCGAUAGCGCCAACGUCCUCAACCUCCAAUGCAUCCCACCACAUGAUGAUGCAUGAAGAGCCUUAGUUUUUUG [C115A G127A]
The “polymerase ribozyme fitness (log ratio)” value of the first is lower: -2.8 for the first, -0.375 for the second.

Going from GACCAAUCUGCCCUCAGAGCUCGAGAACAUCUUCGGAUGCAGAGGAGGCAGGCUUCGGUGGCGCGAUAGCGCCAACGUCCUCAACCUCCAAUGCAUCCCACCACAUGAUGAUGCAUGAAGAGCCUUCGUUUUUUG [C115A G127C] to GACCAAUCUGCCCUCAGAGCUCGAGAACAUCUUCGGAUGCAGAGGAGGCAGGCUUCGGUGGCGCGAUAGCGCCAACGUCCUCAACCUCCAAUGCAUCCCACCACAUGAUGAUGCCUCAAGAGCCUUCGUUUUUUG [G117C G127C], the “polymerase ribozyme fitness (log ratio)” value falls from -1.67 to -5.04.

Going from GACCAAUCUGCCCUCAGAGCUCGAGAACAUCUUCGGAUGCAGAGGAGGCAGGCUUCGGUGGCGCGAUAGCGCCAACGUCCUCAACCUCCAAUGCAUCCCACCACAUGAUGAUGCCUCAAGAGCCUUAGUUUUUUG [G117C G127A] to GACCAAUCUGCCCUCAGAGCUCGAGAACAUCUUCGGAUGCAGAGGAGGCAGGCUUCGGUGGCGCGAUAGCGCCAACGUCCUCAACCUCCAAUGCAUCCCACCACAUGAUGAUGCAUGAUGAGCCUUGGUUUUUUG [C115A A119U], the “polymerase ribozyme fitness (log ratio)” value rises from -6.44 to -1.26.

First: GACCAAUCUGCCCUCAGAGCUCGAGAACAUCUUCGGAUGCAGAGGAGGCAGGCUUCGGUGGCGCGAUAGCGCCAACGUCCUCAACCUCCAAUGCAUCCCACCACAUGAUGAUGCCUCAAGAGCCUUGGUUGUUUG [G117C U131G]
Second: GACCAAUCUGCCCUCAGAGCUCGAGAACAUCUUCGGAUGCAGAGGAGGCAGGCUUCGGUGGCGCGAUAGCGCCAACGUCCUCAACCUCCAAUGCAUCCCACCACAUGAUGAUGCCAGAAGAGCCUUGGUUUUUUG [U116A]
The “polymerase ribozyme fitness (log ratio)” value of the first is lower: -4.4 for the first, -2.96 for the second.

First: GACCAAUCUGCCCUCAGAGCUCGAGAACAUCUUCGGAUGCAGAGGAGGCAGGCUUCGGUGGCGCGAUAGCGCCAACGUCCUCAACCUCCAAUGCAUCCCACCACAUGAUGAUGCCCGAAGAGCCUUGGUUUUUUG [U116C]
Second: GACCAAUCUGCCCUCAGAGCUCGAGAACAUCUUCGGAUGCAGAGGAGGCAGGCUUCGGUGGCGCGAUAGCGCCAACGUCCUCAACCUCCAAUGCAUCCCACCACAUGAUGAUGCCGGAAGAGCCUUGGUUUUUUG [U116G]
The “polymerase ribozyme fitness (log ratio)” value of the first is higher: -0.392 for the first, -1.95 for the second.

With GACCAAUCUGCCCUCAGAGCUCGAGAACAUCUUCGGAUGCAGAGGAGGCAGGCUUCGGUGGCGCGAUAGCGCCAACGUCCUCAACCUCCAAUGCAUCCCACCACAUGAUGAUGCCAGAAUAGCCUUGGUUUUUUG [U116A G120U] the “polymerase ribozyme fitness (log ratio)” value was -1.5.
